{"source": "patent US20130189255A1", "about": "“FUSIONS AND CONJUGATES OF INSULINOTROPIC AGENTS” (GLAXO GROUP LIMITED, priority 2008, published 2013)", "key": {"[1]": {"conditions": "rat, in vivo", "experimental": "This was followed by ion exchange chromotography on a Resource S column using a 0-1M salt gradient in 20 mM acetate pH5.0. Fractions containing the desired protein were then combined and buffer exchanged into 100 mM NaCl, 20 mM citrate pH6.2. Protein was filter sterilised, buffer exchanged and Qced prior to use in vivo.\nCalculated plasma levels were then used to fit pharmacokinetic parameters using WinNonLin software. Half life after subcutaneous and intravenous administration and bioavailability is outlined in the table 8 below. It was concluded from the results that all three compounds show desirable pharmacokinetic parameters in rat."}, "CSA": {"molecular_target": "CSA (Macaca fascicularis, UniProt A2V9Z4)", "sequence (A2V9Z4 25-608)": "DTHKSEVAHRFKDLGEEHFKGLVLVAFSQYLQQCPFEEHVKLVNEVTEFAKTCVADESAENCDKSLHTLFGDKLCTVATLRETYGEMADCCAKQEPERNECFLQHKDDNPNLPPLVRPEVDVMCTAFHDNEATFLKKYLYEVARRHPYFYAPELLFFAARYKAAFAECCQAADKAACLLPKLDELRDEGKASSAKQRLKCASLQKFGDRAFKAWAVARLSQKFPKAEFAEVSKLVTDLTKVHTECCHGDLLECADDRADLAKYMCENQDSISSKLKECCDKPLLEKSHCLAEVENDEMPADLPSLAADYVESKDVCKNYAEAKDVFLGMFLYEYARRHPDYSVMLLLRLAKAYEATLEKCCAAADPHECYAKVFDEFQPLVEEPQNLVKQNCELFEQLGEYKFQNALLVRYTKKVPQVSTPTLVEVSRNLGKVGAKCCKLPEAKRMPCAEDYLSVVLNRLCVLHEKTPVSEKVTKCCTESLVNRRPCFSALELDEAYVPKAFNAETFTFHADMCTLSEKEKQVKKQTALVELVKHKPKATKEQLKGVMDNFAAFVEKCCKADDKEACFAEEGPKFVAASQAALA", "experiment": "Surface plasmon resonance (Biacore, streptavidin chip with biotinylated serum albumin), CSA", "format": "binding, cynomolgus monkey", "conditions": "Biacore SA chip, HBS-EP buffer; read-out: Affinity (KD) to CSA", "experimental": "The analysis was performed using a streptavidin chip (SA) coated with biotinylated serum albumin. 200-1000 resonance units (RUs) of each serum albumin was immobilised on the chip. Flow cell 1 was uncoated, flow cell 2 was coated with HSA, flow cell 3 was coated with RSA and flow cell 4 was coated with CSA. A range of concentrations of fusion was prepared (in the range 15.6 nM to 2 μM by dilution into BIACORE HBS-EP buffer (0.01M HEPES, pH7.4, 0.15M NaCl, 3 mM EDTA, 0.005% surfactant P20) and flowed across the BIACORE chip.\nAffinity (KD) was calculated from the BIACORE traces by fitting on-rate and off-rate curves to traces generated by concentrations of dAb in the region of the KD."}, "[2]": {"experiment": "In solution state by SEC MALLS", "format": "physicochemical", "conditions": "Superdex 200, 20 mM citrate, 0.1M NaCl", "experimental": "The aim of this experiment was to determine the in solution state of DAT0115, DAT0117 and DAT0120 by SEC MALLS. Samples were purified and dialysed into appropriate buffer (PBS) and filtered after dialysis, concentration was determined and adjusted to 1 mg/ml. BSA and HSA were purchased from Sigma and used without further purification. Shimadzu LC-20AD Prominence HPLC system with an autosampler (SIL-20A) and SPD-20A Prominence UV/Vis detector was connected to Wyatt Mini Dawn Treos (MALLS, multi-angle laser light scattering detector) and Wyatt Optilab rEX DRI (differential refractive index) detector. The detectors were connected in the following order—LS—UV—RI. Both RI and LS instruments operated at a wavelength of 488 nm. […] The traces are then analysed using ASTRA software, and the signals are normalised aligned and corrected for band broadening following manufacturer's instructions. […] The dilution that takes place on the column is about 10 fold, so the concentration at which in-solution state is determined is 100 ug/ml, or about 8 uM dAb. […] 16, 1093-1099 (1948)]: The calculations were performed automatically by ASTRA software, resulting in a plot with molar mass determined for eath of the slices [Astra manual]. […]"}}, "note": "Entries after “also recorded” stand apart in the source; their conditions may differ.", "data": [{"substance": "Exendin 4 (G4S linker)3 DOM7h-14 dAb fusion [DAT0115]", "values": [{"measurement": "Bioavailability", "setting": "[1]", "result": 81, "unit": "%"}, {"measurement": "Half-life after intravenous administration", "setting": "[1]; iv, 0.3 mg/kg", "result": 4.9, "unit": "h"}, {"measurement": "Kd", "setting": "CSA", "result": 2000, "unit": "nM"}, {"measurement": "in-solution state (self association)", "setting": "[2]; pH6.2", "result": "eluted in a single peak; also recorded: significantly less (and possibly no) self association"}, {"measurement": "Mw determined across the peak (SEC MALLS)", "setting": "[2]; pH6.2, 0.5 ml/min, expected monomer 16.9 kDa", "result": 17.4, "unit": "kDa"}]}]}
